This note sets out measurements from article PMC12065894.

For assay [1], the target named is dasTMPRSS2 (active TMPRSS2 ectodomain with DDDDK zymogen activation motif) (human) (UniProt O15393).
For assay [2], the target named is dasTMPRSS11D (active, autocleaved TMPRSS11D with DDDDK zymogen activation motif) (human) (UniProt O60235).
Assay [3] addresses dasTMPRSS2 (active TMPRSS2 ectodomain with DDDDK zymogen activation motif) (human) (UniProt O15393). The source holds these as a separate data set.

Chain of dasTMPRSS2 (active TMPRSS2 ectodomain with DDDDK zymogen activation motif) (human) (O15393 other isoform, or with tags, fused parts or gaps, chain 1 of 2): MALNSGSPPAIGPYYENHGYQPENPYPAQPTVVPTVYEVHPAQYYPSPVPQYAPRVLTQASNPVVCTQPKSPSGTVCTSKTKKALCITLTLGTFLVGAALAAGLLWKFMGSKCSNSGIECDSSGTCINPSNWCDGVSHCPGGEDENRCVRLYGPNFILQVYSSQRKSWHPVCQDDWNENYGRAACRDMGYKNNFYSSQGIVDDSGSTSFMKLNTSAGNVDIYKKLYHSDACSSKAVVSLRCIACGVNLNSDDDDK
Chain of dasTMPRSS2 (active TMPRSS2 ectodomain with DDDDK zymogen activation motif) (human) (O15393 256-492, chain 2 of 2): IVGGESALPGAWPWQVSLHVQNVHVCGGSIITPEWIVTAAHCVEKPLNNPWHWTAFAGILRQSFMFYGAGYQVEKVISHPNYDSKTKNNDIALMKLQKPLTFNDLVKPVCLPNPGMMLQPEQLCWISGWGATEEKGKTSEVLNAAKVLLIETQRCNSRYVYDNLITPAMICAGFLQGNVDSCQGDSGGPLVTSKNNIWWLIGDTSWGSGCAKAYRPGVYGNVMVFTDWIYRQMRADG
Chain of dasTMPRSS11D (active, autocleaved TMPRSS11D with DDDDK zymogen activation motif) (human) (O60235 other isoform, or with tags, fused parts or gaps L182D | S183D | E184D | Q185D | R186K, chain 1 of 2): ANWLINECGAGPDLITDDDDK
Chain of dasTMPRSS11D (active, autocleaved TMPRSS11D with DDDDK zymogen activation motif) (human) (O60235 187-418, chain 2 of 2): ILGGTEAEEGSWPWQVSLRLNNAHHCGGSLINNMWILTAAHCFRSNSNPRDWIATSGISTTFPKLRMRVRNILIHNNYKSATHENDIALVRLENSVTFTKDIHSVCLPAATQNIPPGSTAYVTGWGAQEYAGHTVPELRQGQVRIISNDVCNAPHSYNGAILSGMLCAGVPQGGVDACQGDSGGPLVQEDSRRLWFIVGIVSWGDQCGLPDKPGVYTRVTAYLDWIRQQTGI

In assay [1], “Peptidomimetic 1, Ac-Glu-Gln-Arg-kbt (peptide)” displayed an IC50 of inhibition of dasTMPRSS2 (1.5 nM) peptidase activity on Boc-QAR-AMC (100 µM), 10 min pre-incubation of 2.2 nM.

Turning to “Peptidomimetic 2, Ac-Gln-Ser-Arg-kbt (peptide)”, the IC50 of inhibition of dasTMPRSS2 (1.5 nM) peptidase activity on Boc-QAR-AMC (100 µM), 10 min pre-incubation in assay [1] turned out to be 2.1 nM.

In assay [2], “Peptidomimetic 3, Ac-Glu-Glu-Arg-kbt (peptide)” came in with an IC50 of inhibition of dasTMPRSS11D (15 nM) peptidase activity on Boc-QAR-AMC (100 µM) of 7.1 nM. The substance further had an IC50 of inhibition of dasTMPRSS2 (1.5 nM) peptidase activity on Boc-QAR-AMC (100 µM) in assay [3] of 3.2 nM.

In assay [2], “Peptidomimetic 4, Ac-Glu-D-Glu-Arg-kbt (peptide)” displayed an IC50 of inhibition of dasTMPRSS11D (15 nM) peptidase activity on Boc-QAR-AMC (100 µM) of 111 nM. For the same substance, the IC50 of inhibition of dasTMPRSS2 (1.5 nM) peptidase activity on Boc-QAR-AMC (100 µM) in assay [3] was 42 nM.

In the case of “Peptidomimetic 5, Ac-Glu-Orn-Arg-kbt (peptide)”, in assay [2], the IC50 of inhibition of dasTMPRSS11D (15 nM) peptidase activity on Boc-QAR-AMC (100 µM) came out at 2100 nM. The IC50 of inhibition of dasTMPRSS2 (1.5 nM) peptidase activity on Boc-QAR-AMC (100 µM) in assay [3] worked out at 6.2 nM.
